Test results reported in patent publication US7253271 (REGENTS OF THE UNIVERSITY OF MICHIGAN, dated 2007).

How the values were obtained:
[1] = biological target: T1, human ClC-Kb chloride channel (human, UniProt P51801 1-687); assay: inferred from co-expression (currents, colocalisation); no direct binding assay
T1 construct: whole, on cells; Expressed from cRNA in Xenopus oocytes or from cDNA in tsA201 cells; also called CIC-Kb; CLCNKB
T1 sequence (looked up): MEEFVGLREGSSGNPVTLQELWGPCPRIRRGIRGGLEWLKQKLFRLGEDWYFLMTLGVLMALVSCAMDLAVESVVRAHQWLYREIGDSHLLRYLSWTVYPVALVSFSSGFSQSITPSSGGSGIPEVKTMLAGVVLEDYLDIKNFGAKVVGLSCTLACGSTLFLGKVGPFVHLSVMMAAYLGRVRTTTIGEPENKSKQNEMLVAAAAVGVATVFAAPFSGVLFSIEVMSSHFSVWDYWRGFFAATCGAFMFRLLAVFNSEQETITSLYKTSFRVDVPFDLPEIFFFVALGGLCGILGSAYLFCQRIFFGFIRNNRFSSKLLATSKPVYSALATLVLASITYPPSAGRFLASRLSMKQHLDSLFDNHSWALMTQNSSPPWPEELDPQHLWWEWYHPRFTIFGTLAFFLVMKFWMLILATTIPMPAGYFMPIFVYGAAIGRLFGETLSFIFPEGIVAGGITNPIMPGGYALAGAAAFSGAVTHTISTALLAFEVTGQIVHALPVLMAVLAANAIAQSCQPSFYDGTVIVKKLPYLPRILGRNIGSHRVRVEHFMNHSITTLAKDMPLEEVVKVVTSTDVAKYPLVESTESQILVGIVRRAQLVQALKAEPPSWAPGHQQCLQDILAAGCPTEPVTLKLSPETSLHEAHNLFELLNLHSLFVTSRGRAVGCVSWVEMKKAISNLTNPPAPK

[2] = biological target: T2, human ClC-Ka chloride channel (human, UniProt P51800 1-687); assay: inferred from co-expression (currents, surface expression, colocalisation); no direct binding assay
T2 construct: whole, on cells; Expressed from cRNA in Xenopus oocytes or from cDNA in tsA201 cells; also called CIC-Ka; CLCNKA
T2 sequence (looked up): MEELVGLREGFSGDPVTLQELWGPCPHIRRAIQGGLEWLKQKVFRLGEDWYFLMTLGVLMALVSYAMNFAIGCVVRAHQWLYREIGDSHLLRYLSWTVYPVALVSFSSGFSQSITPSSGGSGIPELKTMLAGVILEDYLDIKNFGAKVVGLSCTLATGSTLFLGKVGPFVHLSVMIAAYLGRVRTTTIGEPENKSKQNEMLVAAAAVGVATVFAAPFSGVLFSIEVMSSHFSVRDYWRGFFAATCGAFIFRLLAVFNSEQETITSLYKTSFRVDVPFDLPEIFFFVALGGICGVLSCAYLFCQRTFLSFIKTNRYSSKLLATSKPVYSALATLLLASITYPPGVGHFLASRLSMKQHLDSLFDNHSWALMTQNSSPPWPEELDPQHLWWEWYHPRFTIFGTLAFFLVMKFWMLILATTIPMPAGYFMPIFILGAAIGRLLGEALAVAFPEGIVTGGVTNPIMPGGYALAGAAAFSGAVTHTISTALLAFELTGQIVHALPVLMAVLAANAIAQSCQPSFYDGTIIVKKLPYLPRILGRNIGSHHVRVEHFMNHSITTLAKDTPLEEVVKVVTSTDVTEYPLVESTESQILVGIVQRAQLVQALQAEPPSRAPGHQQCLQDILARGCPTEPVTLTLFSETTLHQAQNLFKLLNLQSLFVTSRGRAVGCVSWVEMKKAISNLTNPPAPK

- binding result [1]: binds
- binding result [2]: binds
B1: barttin (BSND protein), wild type, human (other)
chain: MADEKTFRIGFIVLGLFLLALGTFLMSHDRPQVYGTFYAMGSVMVIGGIIWSMCQCYPKITFVPADSDFQGILSPKAMGLLENGLAAEMKSPSPQPPYVRLWEEAAYDQSLPDFSHIQMKVMSYSEDHRSLLAPEMGQPKLGTSDGGEGGPGDVQAWMEAAVVIHKGSDESEGERRLTQSWPGPLACPQGPAPLASFQDDLDMDSSEGSSPNASPHDREEACSPQQEPQGCRCPLDRFQDFALIDAPTLEDEPQEGQQWEIALPNNWQRYPRTKVEEKEASDTGGEEPEKEEEDLYYGLPDGAGDLLPDKELGFEPDTQG
notes: Expressed in Xenopus oocytes, tsA201 cells or other transfected cells
